Reference: PMC7868338, “Identification of Functional Interactome of Colistin Resistance Protein MCR-1 in Escherichia coli” (Frontiers in Microbiology, 2020)

Key:
[1] = target: T1, SspB protein (SPR analyte) (E. coli, UniProt P0AFZ3 1-165); assay: SPR
T1 chain: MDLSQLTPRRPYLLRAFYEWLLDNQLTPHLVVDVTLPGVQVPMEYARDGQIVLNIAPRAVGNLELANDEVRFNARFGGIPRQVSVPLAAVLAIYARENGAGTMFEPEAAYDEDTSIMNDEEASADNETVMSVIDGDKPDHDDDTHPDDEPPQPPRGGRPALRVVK

[2] = target: T2, MCR-1 full-length protein (E. coli (strain SHP45), UniProt A0A0R6L508 1-541); assay: SPR; Reichert 4SPR; MCR-1 or MCR-1-200 in PBS directly immobilised on a Planar Mixed SAM chip; SspB 0.156-5 μM (twofold dilutions) in PBST pH 7.4, 0.05% Tween-20; conditions: both partners purified
T2 construct: MCR-1, phosphoethanolamine transferase; gene amplified from E. coli strain SHP45; 541 amino acids; also called His6-MCR-1; source: E. coli BL21 (DE3) (pET28a-mcr-1), IPTG-induced; in lysate (1% DDM) for the Co-IP; purified (Ni-NTA) for SPR
T2 sequence: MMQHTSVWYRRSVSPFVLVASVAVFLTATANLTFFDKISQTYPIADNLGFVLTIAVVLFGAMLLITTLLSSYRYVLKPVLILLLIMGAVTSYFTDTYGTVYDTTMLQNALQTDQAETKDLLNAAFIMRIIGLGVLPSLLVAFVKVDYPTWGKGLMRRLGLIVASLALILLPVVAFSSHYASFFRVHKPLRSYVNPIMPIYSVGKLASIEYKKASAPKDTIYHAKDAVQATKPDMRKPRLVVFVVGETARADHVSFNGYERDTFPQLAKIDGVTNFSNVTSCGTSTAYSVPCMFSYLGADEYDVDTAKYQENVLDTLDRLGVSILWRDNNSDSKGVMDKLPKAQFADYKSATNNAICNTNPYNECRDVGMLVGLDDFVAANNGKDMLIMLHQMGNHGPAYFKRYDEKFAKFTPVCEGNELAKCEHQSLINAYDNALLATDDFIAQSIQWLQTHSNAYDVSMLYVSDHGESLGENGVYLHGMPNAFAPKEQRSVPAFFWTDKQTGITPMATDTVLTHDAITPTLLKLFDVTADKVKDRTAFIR

[3] = target: T3, MCR-1-200 catalytic domain protein (E. coli (strain SHP45), UniProt A0A0R6L508 201-541); assay: as above; conditions: both partners purified
T3 construct: catalytic domain of MCR-1, 341 amino acids; also called catalytic domain of MCR-1; MCR-1 catalytic protein; source: E. coli BL21 (DE3) (pET28a-mcr-1-200), IPTG-induced; in lysate (1% DDM) for the Co-IP; purified (Ni-NTA) for SPR
T3 sequence: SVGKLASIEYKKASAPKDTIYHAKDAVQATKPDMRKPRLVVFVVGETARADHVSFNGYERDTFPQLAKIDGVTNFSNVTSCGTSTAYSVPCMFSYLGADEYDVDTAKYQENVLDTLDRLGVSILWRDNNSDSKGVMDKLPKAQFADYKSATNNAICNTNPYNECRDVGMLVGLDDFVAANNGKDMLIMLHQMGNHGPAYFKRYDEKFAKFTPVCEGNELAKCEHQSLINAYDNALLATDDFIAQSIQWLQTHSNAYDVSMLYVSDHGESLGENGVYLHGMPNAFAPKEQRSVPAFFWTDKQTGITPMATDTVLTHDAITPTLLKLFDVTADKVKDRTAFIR

Row | Binder | koff [1] | Kd [2] | Kd [3]
1 | MCR-1 full-length protein (enzyme) MMQHTSVWYRRSVSPFVLVASVAVFLTATANLTFFDKISQTYPIADNLGFVLTIAVVLFGAMLLITTLLSSYRYVLKPVLILLLIMGAVTSYFTDTYGTVYDTTMLQNALQTDQAETKDLLNAAFIMRIIGLGVLPSLLVAFVKVDYPTWGKGLMRRLGLIVASLALILLPVVAFSSHYASFFRVHKPLRSYVNPIMPIYSVGKLASIEYKKASAPKDTIYHAKDAVQATKPDMRKPRLVVFVVGETARADHVSFNGYERDTFPQLAKIDGVTNFSNVTSCGTSTAYSVPCMFSYLGADEYDVDTAKYQENVLDTLDRLGVSILWRDNNSDSKGVMDKLPKAQFADYKSATNNAICNTNPYNECRDVGMLVGLDDFVAANNGKDMLIMLHQMGNHGPAYFKRYDEKFAKFTPVCEGNELAKCEHQSLINAYDNALLATDDFIAQSIQWLQTHSNAYDVSMLYVSDHGESLGENGVYLHGMPNAFAPKEQRSVPAFFWTDKQTGITPMATDTVLTHDAITPTLLKLFDVTADKVKDRTAFIR | 0.325 s⁻¹ |  | 
2 | MCR-1-200 catalytic domain protein (domain or fragment) SVGKLASIEYKKASAPKDTIYHAKDAVQATKPDMRKPRLVVFVVGETARADHVSFNGYERDTFPQLAKIDGVTNFSNVTSCGTSTAYSVPCMFSYLGADEYDVDTAKYQENVLDTLDRLGVSILWRDNNSDSKGVMDKLPKAQFADYKSATNNAICNTNPYNECRDVGMLVGLDDFVAANNGKDMLIMLHQMGNHGPAYFKRYDEKFAKFTPVCEGNELAKCEHQSLINAYDNALLATDDFIAQSIQWLQTHSNAYDVSMLYVSDHGESLGENGVYLHGMPNAFAPKEQRSVPAFFWTDKQTGITPMATDTVLTHDAITPTLLKLFDVTADKVKDRTAFIR | 0.0106 s⁻¹ |  | 
3 | SspB protein (SPR analyte) (natural protein, Stringent starvation protein B, E. coli; also called Stringent starvation protein B) MDLSQLTPRRPYLLRAFYEWLLDNQLTPHLVVDVTLPGVQVPMEYARDGQIVLNIAPRAVGNLELANDEVRFNARFGGIPRQVSVPLAAVLAIYARENGAGTMFEPEAAYDEDTSIMNDEEASADNETVMSVIDGDKPDHDDDTHPDDEPPQPPRGGRPALRVVK |  | 140 µM | 5.13 µM
